Target: NK1 receptor (human) (UniProt P25103)
Assay: cell-based or functional assay

Chain of NK1 receptor (human) (P25103 87-407): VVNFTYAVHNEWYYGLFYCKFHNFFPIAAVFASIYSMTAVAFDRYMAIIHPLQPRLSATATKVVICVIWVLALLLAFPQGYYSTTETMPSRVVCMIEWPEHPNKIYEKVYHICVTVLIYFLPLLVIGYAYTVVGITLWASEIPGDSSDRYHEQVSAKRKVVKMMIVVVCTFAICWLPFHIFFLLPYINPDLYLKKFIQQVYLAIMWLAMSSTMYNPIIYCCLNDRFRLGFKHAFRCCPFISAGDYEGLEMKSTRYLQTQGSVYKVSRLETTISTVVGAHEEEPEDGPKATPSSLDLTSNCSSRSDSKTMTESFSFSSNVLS

anti-NK1 antibody (S8305, Sigma-Aldrich)
Percentage of inhibition of cell cultures; Non Hodgkin Lymphoma B (diffuse B cell lymphoma); cases with amplification of the gene that encodes for the NK1 receptor: 94% | Percentage of inhibition of cell cultures; Non Hodgkin Lymphoma B (diffuse B cell lymphoma); cases without amplification of the gene that encodes for the NK1 receptor: 26% | Percentage of inhibition of cell cultures; Non Hodgkin Lymphoma B (diffuse B cell lymphoma); high expression of the truncated form of NK1 receptor (Group B): 95% | Percentage of inhibition of cell cultures; Non Hodgkin Lymphoma B (diffuse B cell lymphoma); low expression of the truncated form of NK1 receptor (Group A): 24% | Percentage of inhibition of cell cultures; Non Hodgkin Lymphoma T (diffuse T cell lymphoma); cases with amplification of the gene that encodes for the NK1 receptor: 95% | Percentage of inhibition of cell cultures; Non Hodgkin Lymphoma T (diffuse T cell lymphoma); cases without amplification of the gene that encodes for the NK1 receptor: 24% | Percentage of inhibition of cell cultures; Non Hodgkin Lymphoma T (diffuse T cell lymphoma); high expression of the truncated form of NK1 receptor (Group B): 95% | Percentage of inhibition of cell cultures; Non Hodgkin Lymphoma T (diffuse T cell lymphoma); low expression of the truncated form of NK1 receptor (Group A): 25% | Percentage of inhibition of cell cultures; Ovarian carcinoma (Adenocarcinoma); cases with amplification of the gene that encodes for the NK1 receptor: 95% | Percentage of inhibition of cell cultures; Ovarian carcinoma (Adenocarcinoma); cases without amplification of the gene that encodes for the NK1 receptor: 24% | Percentage of inhibition of cell cultures; Ovarian carcinoma (Adenocarcinoma); high expression of the truncated form of NK1 receptor (Group B): 95% | Percentage of inhibition of cell cultures; Ovarian carcinoma (Adenocarcinoma); low expression of the truncated form of NK1 receptor (Group A): 25% | Percentage of inhibition of cell cultures; Pancreatic carcinoma (Adenocarcinoma); cases with amplification of the gene that encodes for the NK1 receptor: 96% | Percentage of inhibition of cell cultures; Pancreatic carcinoma (Adenocarcinoma); cases without amplification of the gene that encodes for the NK1 receptor: 25% | Percentage of inhibition of cell cultures; Pancreatic carcinoma (Adenocarcinoma); high expression of the truncated form of NK1 receptor (Group B): 95% | Percentage of inhibition of cell cultures; Pancreatic carcinoma (Adenocarcinoma); low expression of the truncated form of NK1 receptor (Group A): 23% | Percentage of inhibition of cell cultures; Prostate carcinoma; cases with amplification of the gene that encodes for the NK1 receptor: 95% | Percentage of inhibition of cell cultures; Prostate carcinoma; cases without amplification of the gene that encodes for the NK1 receptor: 25% | Percentage of inhibition of cell cultures; Prostate carcinoma; high expression of the truncated form of NK1 receptor (Group B): 95% | Percentage of inhibition of cell cultures; Prostate carcinoma; low expression of the truncated form of NK1 receptor (Group A): 27% | Percentage of inhibition of cell cultures; Renal cell carcinoma (clear cell renal cell carcinoma); cases with amplification of the gene that encodes for the NK1 receptor: 97% | Percentage of inhibition of cell cultures; Renal cell carcinoma (clear cell renal cell carcinoma); cases without amplification of the gene that encodes for the NK1 receptor: 27% | Percentage of inhibition of cell cultures; Renal cell carcinoma (clear cell renal cell carcinoma); high expression of the truncated form of NK1 receptor (Group B): 93% | Percentage of inhibition of cell cultures; Renal cell carcinoma (clear cell renal cell carcinoma); low expression of the truncated form of NK1 receptor (Group A): 24% | Percentage of inhibition of cell cultures; Thyroid carcinoma (follicular carcinoma); cases with amplification of the gene that encodes for the NK1 receptor: 95% | Percentage of inhibition of cell cultures; Thyroid carcinoma (follicular carcinoma); cases without amplification of the gene that encodes for the NK1 receptor: 26% | Percentage of inhibition of cell cultures; Thyroid carcinoma (follicular carcinoma); high expression of the truncated form of NK1 receptor (Group B): 94% | Percentage of inhibition of cell cultures; Thyroid carcinoma (follicular carcinoma); low expression of the truncated form of NK1 receptor (Group A): 24% | Percentage of inhibition of cell cultures; Thyroid carcinoma (papillary carcinoma); cases with amplification of the gene that encodes for the NK1 receptor: 96% | Percentage of inhibition of cell cultures; Thyroid carcinoma (papillary carcinoma); cases without amplification of the gene that encodes for the NK1 receptor: 27% | Percentage of inhibition of cell cultures; Thyroid carcinoma (papillary carcinoma); high expression of the truncated form of NK1 receptor (Group B): 95% | Percentage of inhibition of cell cultures; Thyroid carcinoma (papillary carcinoma); low expression of the truncated form of NK1 receptor (Group A): 25% | Percentage of inhibition of cell cultures; Undifferentiated Pleomorphic Sarcoma (malignant fibrous histiocytoma grade 3); cases with amplification of the gene that encodes for the NK1 receptor: 96% | Percentage of inhibition of cell cultures; Undifferentiated Pleomorphic Sarcoma (malignant fibrous histiocytoma grade 3); cases without amplification of the gene that encodes for the NK1 receptor: 25% | Percentage of inhibition of cell cultures; Undifferentiated Pleomorphic Sarcoma (malignant fibrous histiocytoma grade 3); high expression of the truncated form of NK1 receptor (Group B): 95% | Percentage of inhibition of cell cultures; Undifferentiated Pleomorphic Sarcoma (malignant fibrous histiocytoma grade 3); low expression of the truncated form of NK1 receptor (Group A): 25% | Percentage of inhibition of cell cultures; Urinary bladder carcinoma (transitional cell carcinoma); cases with amplification of the gene that encodes for the NK1 receptor: 94% | Percentage of inhibition of cell cultures; Urinary bladder carcinoma (transitional cell carcinoma); cases without amplification of the gene that encodes for the NK1 receptor: 24% | Percentage of inhibition of cell cultures; Urinary bladder carcinoma (transitional cell carcinoma); high expression of the truncated form of NK1 receptor (Group B): 96% | Percentage of inhibition of cell cultures; Urinary bladder carcinoma (transitional cell carcinoma); low expression of the truncated form of NK1 receptor (Group A): 26%
